In publication PMC6347818:

Key:
[1] = target: recombinant Plasmodium vivax Apical Membrane Antigen 1, PvAMA1-His6 (Plasmodium vivax) (UniProt Q9TY14); experiment: ITC; MicroCal VP-ITC; 9.43 µmol/L PvAMA1-His6 in the cell titrated with 300 µmol/L peptide (10 µL injections), 25 °C, PBS; one-site model
[2] = target: recombinant Plasmodium vivax Apical Membrane Antigen 1, PvAMA1-His6 (Plasmodium vivax) (UniProt Q9TY14); experiment: SPR; Biacore T200; PvAMA1-His6 amine-coupled on a CM5 chip; peptides injected at 50 µL/min, 25 °C, PBS; steady-state model, apparent KD

cyclic PvRON2 (2035-2074) peptide
Ka [1]: 300000 M⁻¹
dH [1]: -36 kcal/mol
stoichiometry N (peptide/protein) [1]: 0.6
Kd [2]: 23.9 µM
